Here are results for 1 substance from publication PMC5768801, “The PII signaling protein from red algae represents an evolutionary link between cyanobacterial and Chloroplastida PII proteins” (Scientific Reports, 2018).

Experiment [1] has as its target T1, N-acetyl-L-glutamate kinase from Synechocystis sp. PCC 6803 with an N-terminal His6 tag (Synechocystis sp. PCC 6803) (UniProt P73326).
T1 sequence: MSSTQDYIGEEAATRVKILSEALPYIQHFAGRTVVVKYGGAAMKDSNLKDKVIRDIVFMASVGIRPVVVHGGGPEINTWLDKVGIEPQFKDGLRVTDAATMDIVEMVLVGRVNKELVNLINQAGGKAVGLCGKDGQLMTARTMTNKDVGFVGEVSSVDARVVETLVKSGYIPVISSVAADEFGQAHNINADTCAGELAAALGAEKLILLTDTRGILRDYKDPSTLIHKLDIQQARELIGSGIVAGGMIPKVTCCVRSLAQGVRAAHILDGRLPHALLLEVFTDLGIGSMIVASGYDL

Experiment [2] concerns the target T1, N-acetyl-L-glutamate kinase from Synechocystis sp. PCC 6803 with an N-terminal His6 tag (Synechocystis sp. PCC 6803). This is another data set of the same source.

Sequence of PII protein from the red alga Porphyra purpurea with a C-terminal Strep-tag II (P51254 whole entry): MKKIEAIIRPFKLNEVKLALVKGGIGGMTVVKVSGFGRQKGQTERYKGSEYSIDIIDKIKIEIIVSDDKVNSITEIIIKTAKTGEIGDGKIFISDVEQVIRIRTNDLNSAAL

“PII protein from the red alga Porphyra purpurea with a C-terminal Strep-tag II (from UniProt P51254 1-112) (natural protein)”: in experiment [1], the catalytic efficiency (Kcat/Km) of ScNAGK in the coupled NAGK activity assay, PpPII-complexed (free ScNAGK: 0.55 × 10^3 s^−1M^−1); NAG varied at 10 mM ATP came out at 2360 s^−1M^−1. The substance further displayed a relief of ScNAGK from feedback inhibition by arginine: rise of the IC50 for arginine on addition of PpPII (free ScNAGK: IC50 6.2 µM), coupled NAGK assay, without glutamine in experiment [2] of 4 fold.
